Measurements reported in the DeepSol protein solubility set.

Assay: soluble on expression in E. coli; label from the status in PepcDB or PDB records

Sequence | soluble on expression in E. coli
MGSDKIHHHHHHMIVALFALLASGCGHSQRTLEFRGICVDDPQGENGLYNPGRGFRLETAVDVLHEKDTPTEELNELSAKYVADSVSLSQSYFYLTYLIGKELSEENFRTMQAYFDELQKQGKKAVLRFAYERDFMGRSPVGPTGEQILAHLDQLKPFLEKNKDLILVVQAGMIGAWGEWHSSVQGLENSEETKAAVLEKLLSVVPAERNVQVRLPEFKNLLKDKPELYKRLSFHDDFIVIRPDRWDADMHEGTPKFDQIVAESPYLVVDGELPWGFWSVGADPDSPSAGWIIDGMQAARRLFLQHYTSLSIIHNYKEQHPNNRFDENNPPEYSMVVWKKTMITEDSLLQHHMPVSDSYFRKKDGTKVKRNMFDYIRDHLGYRIELQSLQLPSKFVSGKENVLKLSLKNRGFATVFGEHPVYFVLIDDAGEVTEFPTDANPKNWQPFEPKDSAYTSLMHTVDVSLELPASVTAGTYKLGLWIPDGSDRLRYNPRYAIHCANGDTDWWISKDGKYGVNVLTAVEVE | not soluble
MGHHHHHHENLYFQSHLYFQSHMDVAPLNLGMIAAYYYINYTTIELFSMSLNAKTKVRGLIEIISNAAEYENIPIRHHEDNLLRQLAQKVPHKLNNPKFNDPHVKTNLLLQAHLSRMQLSAELQSDTEEILSKAIRLIQACVDVLSSNGWLSPALAAMELAQMVTQAMWSKDSYLKQLPHFTSEHIKRCTDKGVESVFDIMEMEDEERNALLQLTDSQIADVARFCNRYPNIELSYEVVDKDSIRSGGPVVVLVQLEREEEVTGPVIAPLFPQKREEGWWVVIGDAKSNSLISIKRLTLQQKAKVKLDFVAPATGAHNYTLYFMSDAYMGCDQEYKFSVDVKEAETDSDSD | soluble
EFVDPSWNYFDNRVHDIAIMEGQSQTKKWQKWLSQIEKRFGVDRNILLAIWSMESNYGKVLANKDVMRDTIRSLATLAYADQKRAKYAQAQLIAAMTILQNGEITRAQLTGSWAGAMGHTQFIPSSYLAYAIDMDGDGRRDIWTSVPDALATAANLLYMNGWQSKLPWGVEVKLPQGKNLPEDWHSFEQWAKLGVKQANGKHLPSLSERAILKYPDGPEGPIFLVTKNFFVLKRYNNADRYAFAVALLANRIAGHSGL | not soluble
MARVAIPSVGKDLSSMVSDRFARAEYFIIYDTESGNVEVVENTIADAHGTGPKVVQSLVSKGVEYLIASNVGRNAFETLKAAGVKVYRFEGGTVQEAIDAFSEGRLEELTTFTREG | soluble
SASWLPETLFEIVGQGPAPSKDYYQLLITRTQIIFRWWKISLRSEYRSAKPGETKESHEDFLDNSHLQVQVAVVFGTKILDYVFNLCEGKFDYLERLSDRLLLKIICYLDLEDIASLSQTSSKFEKLCKSDLLWEQIVQSTCDTITPDMRALAKNMGWRQMFLTNNIQLQRQTRKKKQRQENQAEKLA | soluble
MHSEVTPIHHYKKYWAECFGTAPFLPTSREEMDQLGWDSCDVIIVTGDAYVDHPSFGMAIIGRLLEAQGFRVGIIAQPEWQTKDAFMTLGKPNLFFGVTAGNMDSMINRYTADKKIRHDDAYTPNNKGGMRPDRCSLVYSQRCREAYKDVPIVLGGIEASLRRVAHYDYWSDKVRRSILLDAKADILLFGNAERALVEVAHRLANGESINKMVDIRGTAVNLAQVPEHFKIIDSTRIDQPNKPFVPSNPYEVETQCATKGDEKEEAQPITIRPSRHDAKTTAVRLPSFEKLVNDRILYAHASRVLHLETNPYSGRALVQRHGDRELWVNQAPIPLTTEEMDFVFGLYYARVPHPKYGDAKIPAYDMIKTS | soluble
MNSPGVSANFFIPLSFDATSLIKYKLSDDLLARVAASGSLRSSSCRSAVWRLVLRCLPYETSDWEISLSRSRNLYRAHKENHLIDPHDTKFSQDPEFNNPLASIEQNPWNTFFEDNDLRDIIGKDVSRTFPEIEFFQNTSIRQMMSDILLVYAKEHPFVNYRQGMHEILAPLIFVIYSDNEAFQHAKENDELKMLTVEEEDILNCLFCKEYLEQDSYNLFCSVMLEVSRWYEEPTVTESPKRPIPKEPYMRVQDSAPASRLMEDLIDIGNLLHEIDPTLAKHLSTLDIPPQLYGIRWLRLLFGRELPLHDLLFLWDVLLIDRPIAPLAKCMFVSLLVQIRHLLLSSDYGGCLQYLMRYPPIADIDSFVKLARHYRNPKKNAKPMIKSNNFSHITVAGSSHPNRTQRPQRPPAAVNSKNDGAESPSTILALAPVFQKVKNTIRDRSNTVSGPSSPRRSNEPLREPLRTPQKKDNWANEVQMMEEQVSTLQTRLNEQDMMCCQVSKALEIYAEDVRNAKSSELCAVLSQNLLELSKTLMSIKTVPVGTSPPKHSRNGISDIQPKPRDSQPIRQHNEMVDMATKRPPL | not soluble
